The Kd is the constant that tells how readily two partners part at equilibrium. A word on the koff: it is the rate constant with which the complex falls apart. The kon is the second-order rate constant of association.

Experimental findings from patent US20260008847A1 (ELPISCIENCE SUZHOU BIOPHARMA, published 2026) are described below.

The labels stand for the following.
B1: J-19 (antibody, V domains shown)
VH: QVTLKESGPGILQPSHTLSLTCSFSGFSLNTYAMGVSWIRQPSGKGLEWLASIWWNGNKYNNPSLKSRLTVSKDTSNNQAFLKVTSVDTADTATYYCAHSRIIRFTDYVMDAWGQGASVTVSS
VL: DIQMTQSPASLSTFLGEPVTIECRASEDIYNDLAWYQQKPGKSPQLLIYNANSLHTGVPSRFSGSGSGTQYSLKINSLQSEDVASYFCQQYYDYPLTFGSGTKLEIK
notes: Human IgG4 monoclonal antibody with S228P in the constant region, made according to WO 2019/126514 A2; also called benchmark antibody J-19
B2: 1E1 (antibody, V domains shown)
VH: QVQLQQWGAGLLKPSETLSLTCAVYGGSFSGYYWSWIRQPPGKGLEWIGEINHSGSTNYNPSLKSRVTISVDTSKNQFSLKLSSVTAADTAVYYCARLPTRWVTTRYFDLWGRGTLVTVSS
VL: QSVLTQPPSVSGAPGQRVTISCTGSSSNIGAGYDVHWYQQLPGTAPKLLIYGNSNRPSGVPDRFSVSKSGASASLAITGLQAEDEADYYCQSFDNSLSAYVFGGGTQLTVL
notes: Human IgG4 monoclonal antibody with S228P in the constant region, made according to US 2018/0298096 A1; also called benchmark antibody 1E1
B3: 043c (antibody, V domains shown)
VH: QVQLQQSGAELAKPGASVKLSCKASGYTFTSYWMYWVKQRPGQGLEWIGHINPSSGYTKYNQKFKDKATLTADKSSSTAYMQLSSLTYEDSAVYYCARDPNWDNYWGQGTTLTVSS
VL: DIVMTQSHKFMSTSVGDRVSITCKASQDVSIAVAWYQQKPGQSPKLLIYSASYRYTGVPDRFTGSGSGTDFTFTISSVQAEDLAVYYCQQHYSTPYTFGGGTKLEIK
notes: Human IgG4 chimeric antibody with S228P mutation at the Fc region; also called chimeric antibody 043c; parental antibody 043c

T2 sequence (O75019 17-461 limits assumed): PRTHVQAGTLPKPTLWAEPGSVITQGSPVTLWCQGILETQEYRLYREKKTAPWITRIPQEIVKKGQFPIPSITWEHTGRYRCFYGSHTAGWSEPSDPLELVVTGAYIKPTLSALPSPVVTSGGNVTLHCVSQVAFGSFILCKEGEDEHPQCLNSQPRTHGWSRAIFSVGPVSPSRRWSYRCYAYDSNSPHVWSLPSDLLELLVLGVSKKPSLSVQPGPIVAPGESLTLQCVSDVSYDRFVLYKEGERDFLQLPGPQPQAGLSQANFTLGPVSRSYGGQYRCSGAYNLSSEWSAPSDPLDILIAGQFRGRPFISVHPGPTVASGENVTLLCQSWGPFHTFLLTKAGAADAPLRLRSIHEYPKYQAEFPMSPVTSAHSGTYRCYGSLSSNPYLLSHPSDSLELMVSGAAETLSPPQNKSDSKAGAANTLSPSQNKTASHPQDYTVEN
T5 sequence (Q8N423 22-458 limits assumed): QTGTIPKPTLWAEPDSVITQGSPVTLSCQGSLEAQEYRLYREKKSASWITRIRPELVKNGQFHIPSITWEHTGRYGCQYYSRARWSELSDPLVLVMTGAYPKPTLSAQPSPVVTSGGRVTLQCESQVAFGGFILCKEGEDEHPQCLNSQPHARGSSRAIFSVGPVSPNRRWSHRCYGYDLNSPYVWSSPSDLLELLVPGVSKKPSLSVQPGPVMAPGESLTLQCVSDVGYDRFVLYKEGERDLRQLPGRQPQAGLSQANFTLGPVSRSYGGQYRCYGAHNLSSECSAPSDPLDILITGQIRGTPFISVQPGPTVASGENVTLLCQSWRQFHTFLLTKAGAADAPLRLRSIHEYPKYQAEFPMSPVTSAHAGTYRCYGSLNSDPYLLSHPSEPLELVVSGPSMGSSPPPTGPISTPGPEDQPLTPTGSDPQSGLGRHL
T7 sequence (Q8N149 24-449 limits assumed): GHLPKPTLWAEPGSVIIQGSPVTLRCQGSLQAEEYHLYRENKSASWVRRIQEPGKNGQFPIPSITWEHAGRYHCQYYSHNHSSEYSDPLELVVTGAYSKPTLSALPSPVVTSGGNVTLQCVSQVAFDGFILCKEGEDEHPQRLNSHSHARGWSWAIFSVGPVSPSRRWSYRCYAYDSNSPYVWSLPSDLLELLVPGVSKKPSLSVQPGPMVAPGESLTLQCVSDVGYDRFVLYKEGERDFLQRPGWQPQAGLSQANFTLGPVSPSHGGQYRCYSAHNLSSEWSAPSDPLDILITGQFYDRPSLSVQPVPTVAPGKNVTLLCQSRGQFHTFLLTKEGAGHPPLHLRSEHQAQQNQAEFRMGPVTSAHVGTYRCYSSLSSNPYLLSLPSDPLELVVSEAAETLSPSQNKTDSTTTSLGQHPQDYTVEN

The target in one assay is T1, Human LILRB2 stably expressed on EL4 cells (EL4/LILRB2) (human, UniProt Q8N423 22-597).
T1 construct: also called EL4-LILRB2 cells; cell membrane human LILRB2
T1 sequence (Q8N423 22-597 limits assumed): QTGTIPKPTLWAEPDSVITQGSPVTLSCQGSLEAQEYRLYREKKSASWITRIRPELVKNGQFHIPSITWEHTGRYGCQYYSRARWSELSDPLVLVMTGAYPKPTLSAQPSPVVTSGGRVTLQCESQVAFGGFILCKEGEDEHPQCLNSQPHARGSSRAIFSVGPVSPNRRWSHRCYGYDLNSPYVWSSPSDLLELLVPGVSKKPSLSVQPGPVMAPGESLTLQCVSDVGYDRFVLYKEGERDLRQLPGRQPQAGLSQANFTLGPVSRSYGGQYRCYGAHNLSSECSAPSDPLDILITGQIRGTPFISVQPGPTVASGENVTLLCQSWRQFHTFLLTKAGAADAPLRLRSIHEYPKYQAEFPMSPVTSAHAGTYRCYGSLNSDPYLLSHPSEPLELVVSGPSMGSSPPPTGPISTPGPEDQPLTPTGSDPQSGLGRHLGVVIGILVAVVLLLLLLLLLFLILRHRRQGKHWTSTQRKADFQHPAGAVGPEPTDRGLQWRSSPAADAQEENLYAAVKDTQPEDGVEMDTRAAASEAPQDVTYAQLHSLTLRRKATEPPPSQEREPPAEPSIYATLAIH
Kind of assay: Competitive FACS: EL4/LILRB2 cells preincubated with 10 ug/mL antibody, then ANGPTL2 added; inhibition of the ligand's binding to the cells [panel ANGPTL2].
Protocol: (§1) The blocking activities were determined by quantitating the blockade of the ligands binding to EL4/LILRB2 cells.
With B1, the “Inhibition (%)” value is 97%.

As to B2, the “Inhibition (%)” value came to 94%.

For the molecule B3, the “Inhibition (%)” value was determined as 93%.

A further assay has as its target T2, Human LILRA1 ECD recombinant protein with 6×His-tag (human, UniProt O75019 17-461).
T2 construct: range 1-461; Bought protein; not shown: 6×His-tag
Kind of assay: ELISA: plate coated with LILRA1 ECD recombinant protein.
Turning to B1, the binding result is on record as “no binding (tested: 0.5 ug/mL)”.

As to B2, the binding result was “no binding (tested: 0.5 ug/mL)”.

Consider B3, for which the binding result was “no binding (tested: 0.5 ug/mL)”.

For another assay, the target named is T3, Human LILRB3 ECD recombinant protein with 6×His-tag (human, UniProt O75022 24-443).
T3 construct: range 1-443; Bought protein; not shown: 6×His-tag
Briefly: ELISA: plate coated with LILRB3 ECD recombinant protein, antibody at 0.5 ug/mL (method of example 3.2.1); mean OD450 printed over the bar [continued) G]. Background: ELISA stands for enzyme-linked immunosorbent assay.
Turning to B1, the OD450 came out at 0.09.

Regarding B2, the OD450 amounted to 0.07.

On to B3, for which the OD450 amounted to 0.08.

The target of the next assay is T4, Human LILRA5 ECD recombinant protein with 6×His-tag (human, UniProt A6NI73 42-268).
T4 construct: range 1-268; Bought protein; not shown: 6×His-tag
T4 sequence (A6NI73 42-268 limits assumed, form in doubt): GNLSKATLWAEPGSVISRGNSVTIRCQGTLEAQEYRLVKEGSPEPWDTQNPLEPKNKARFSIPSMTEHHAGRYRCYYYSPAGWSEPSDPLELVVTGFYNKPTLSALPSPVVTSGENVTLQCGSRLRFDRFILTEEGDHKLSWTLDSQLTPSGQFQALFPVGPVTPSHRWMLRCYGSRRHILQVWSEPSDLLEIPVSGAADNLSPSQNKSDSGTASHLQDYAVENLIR
Kind of assay: ELISA: plate coated with LILRA5 ECD recombinant protein, antibody at 0.5 ug/mL (method of example 3.2.1); mean OD450 printed over the bar [continued) E].
On to B1, for which the OD450 was 0.09.

In the case of B2, the OD450 is 0.07.

Turning to B3, the OD450 was 0.08.

Another assay has as its target T1, Human LILRB2 stably expressed on EL4 …. Briefly: Competitive FACS: EL4/LILRB2 cells preincubated with 10 ug/mL antibody, then HLA-G complex tetramer added; inhibition of the ligand's binding to the cells [panel HLA-G].
Protocol: as §1
On to B1, for which the “Inhibition (%)” value turned out to be 100%.

For B2, the “Inhibition (%)” value worked out at 100%.

For the molecule B3, the “Inhibition (%)” value came to 100%.

Another assay has as its target T5, 6×His-tagged human LILRB2 ECD recombinant protein (human, UniProt Q8N423 22-458, limits assumed).
T5 construct: Bought protein; not shown: 6×His-tag
Briefly: Bio-Layer Interferometry (Octet), 1:1 model, human LILRB2 ECD. A general note: In BLI a coated tip is dipped into the sample, and binding shifts an interference pattern.
For the molecule B1, the equilibrium dissociation constant (Kd) is 2.14 nM, the koff is 0.00178 s⁻¹ and the on-rate constant (kon) was found to be 830000 M⁻¹ s⁻¹.

Regarding B2, the Kd was found to be 8.07 nM, the off-rate (koff) amounted to 0.00204 s⁻¹ and the association rate constant (kon) is 253000 M⁻¹ s⁻¹.

Take B3: the Kd came to 0.74 nM, the koff was 0.000557 s⁻¹ and the kon is 756000 M⁻¹ s⁻¹.

The target in a further assay is T6, Human LILRA3 ECD recombinant protein with 6×His-tag (human, UniProt Q8N6C8 24-439).
T6 construct: range 1-439; Bought protein; not shown: 6×His-tag
T6 sequence (Q8N6C8 24-439 limits assumed, form in doubt): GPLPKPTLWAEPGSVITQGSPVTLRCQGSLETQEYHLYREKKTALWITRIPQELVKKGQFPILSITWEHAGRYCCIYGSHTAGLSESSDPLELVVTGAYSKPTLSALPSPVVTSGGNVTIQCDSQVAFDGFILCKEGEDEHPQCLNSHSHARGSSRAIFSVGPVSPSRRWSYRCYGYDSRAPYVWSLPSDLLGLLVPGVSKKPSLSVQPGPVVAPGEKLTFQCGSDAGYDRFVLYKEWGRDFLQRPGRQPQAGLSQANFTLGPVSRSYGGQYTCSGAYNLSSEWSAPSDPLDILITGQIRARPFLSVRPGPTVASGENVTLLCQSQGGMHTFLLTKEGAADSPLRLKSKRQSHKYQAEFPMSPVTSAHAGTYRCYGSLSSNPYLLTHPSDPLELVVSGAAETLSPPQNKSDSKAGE
Briefly: ELISA: plate coated with LILRA3 ECD recombinant protein, antibody at 0.5 ug/mL (method of example 3.2.1); mean OD450 printed over the bar [continued) C].
With B1, the OD450 stood at 0.08.

For the molecule B2, the OD450 was 0.07.

As to B3, the OD450 amounted to 0.09.

Another assay concerns the target T1, Human LILRB2 stably expressed on EL4 …. Briefly: Competitive FACS: EL4/LILRB2 cells preincubated with 10 ug/mL antibody, then ANGPTL1 added; inhibition of the ligand's binding to the cells [panel ANGPTL1].
Protocol: as §1
With B1, the “Inhibition (%)” value was found to be 70%.

For the molecule B2, the “Inhibition (%)” value was determined as 70%.

On to B3, for which the “Inhibition (%)” value was determined as 71%.

The target is the same in a further assay. Kind of assay: Competitive FACS: EL4/LILRB2 cells preincubated with 10 ug/mL antibody, then MAG ECD added; inhibition of the ligand's binding to the cells [panel MAG].
Protocol: as §1
For B1, the “Inhibition (%)” value was 13%.

On to B2, for which the “Inhibition (%)” value is 93%.

B3: the “Inhibition (%)” value amounted to 90%.

Another assay deals with T5, 6×His-tagged human LILRB2 ECD …. Briefly: ELISA: plate coated with 6xHis-tagged human LILRB2 ECD, antibody at 0.5 ug/mL, HRP detection antibody; mean OD450 printed over the bar.
Protocol: (§2) Briefly, 0.5 μg/mL anti-LILRB2 antibodies were incubated in human LILRB2 ECD recombinant protein-coated ELISA plate at 37° C. for 1 hour. After washing, horseradish peroxidase (HRP) labeled detection antibody was added and incubated at 37° C. for 1 hour. Color development was conducted by the addition of 100 μl/well of TMB (3,3′,5,5′-Tetramethylbenzidine) solution. After incubation at room temperature (RT) for 10-15 minutes, the reaction was stopped by adding 100 μl 1N HCl. Then the plates were read immediately using plate reader for optical density at 450 nm.
As to B1, the OD450 was 3.27.

In the case of B2, the OD450 is 1.42.

With B3, the OD450 is 2.72.

The next assay addresses T7, Human LILRA2 ECD recombinant protein with His-tag (human, UniProt Q8N149 24-449).
T7 construct: range 24-449; Bought protein; not shown: His-tag
Briefly: ELISA: plate coated with LILRA2 ECD recombinant protein [continued) B].
In the case of B1, the binding result is given as “no binding (tested: 0.5 ug/mL)”.

On to B2, for which the binding result is “no binding (tested: 0.5 ug/mL)”.

B3: the binding result is listed as “no binding (tested: 0.5 ug/mL)”.

The target of another assay is T8, Human LILRB1 ECD recombinant protein with 6×His-tag (human, UniProt Q8NHL6 24-458, limits assumed).
T8 construct: Bought protein; not shown: 6×His-tag
T8 sequence (Q8NHL6 24-458 limits assumed): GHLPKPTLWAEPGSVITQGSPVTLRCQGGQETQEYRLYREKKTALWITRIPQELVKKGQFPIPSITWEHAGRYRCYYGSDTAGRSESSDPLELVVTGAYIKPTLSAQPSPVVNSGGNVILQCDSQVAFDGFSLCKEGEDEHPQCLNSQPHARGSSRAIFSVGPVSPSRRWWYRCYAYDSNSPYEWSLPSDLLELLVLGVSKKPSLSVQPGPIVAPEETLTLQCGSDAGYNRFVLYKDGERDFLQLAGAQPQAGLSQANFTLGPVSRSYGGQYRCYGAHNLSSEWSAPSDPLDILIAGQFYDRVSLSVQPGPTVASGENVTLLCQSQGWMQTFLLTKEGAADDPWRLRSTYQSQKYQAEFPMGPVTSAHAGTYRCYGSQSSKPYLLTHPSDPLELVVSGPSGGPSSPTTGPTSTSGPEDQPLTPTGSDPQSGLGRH
Kind of assay: ELISA: plate coated with LILRB1 ECD recombinant protein [continued) F].
Take B1: the binding result is “no binding (tested: 0.5 ug/mL)”.

For the molecule B2, the binding result is “no binding (tested: 0.5 ug/mL)”.

As for B3, the binding result is on record as “no binding (tested: 0.5 ug/mL)”.

In the next assay the target is T9, Human LILRA4 ECD recombinant protein with 6×His-tag (human, UniProt P59901 24-446).
T9 construct: range 1-446; Bought protein; not shown: 6×His-tag
T9 sequence (P59901 24-446 limits assumed): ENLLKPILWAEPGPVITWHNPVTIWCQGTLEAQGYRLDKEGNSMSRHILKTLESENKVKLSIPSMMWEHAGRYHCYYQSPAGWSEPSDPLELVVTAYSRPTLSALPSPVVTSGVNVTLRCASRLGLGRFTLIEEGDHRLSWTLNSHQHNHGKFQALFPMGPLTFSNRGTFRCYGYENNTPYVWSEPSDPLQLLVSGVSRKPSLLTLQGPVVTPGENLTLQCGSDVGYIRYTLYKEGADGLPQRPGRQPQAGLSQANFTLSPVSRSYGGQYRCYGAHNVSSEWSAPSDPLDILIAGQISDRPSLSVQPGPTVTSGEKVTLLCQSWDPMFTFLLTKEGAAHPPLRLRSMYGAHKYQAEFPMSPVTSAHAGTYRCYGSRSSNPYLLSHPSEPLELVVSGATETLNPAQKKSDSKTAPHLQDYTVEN
Briefly: ELISA: plate coated with LILRA4 ECD recombinant protein [continued) D].
In the case of B1, the binding result is recorded as “no binding (tested: 0.5 ug/mL)”.

In the case of B2, the binding result is “no binding (tested: 0.5 ug/mL)”.

For B3, the binding result is recorded as “no binding (tested: 0.5 ug/mL)”.

The next assay addresses T5, 6×His-tagged human LILRB2 ECD …. Briefly: Octet tandem binning on captured 6×His LILRB2 ECD; competitor (Ab1) J-19.
Protocol: (§3) Briefly, the HIS1K sensors were hydrolyzed for 10 minutes followed by capture of 6×His-tagged human LILRB2 ECD recombinant protein to 0.3 nm. The LILRB2 captured sensors were then exposed to Ab1 and Ab2 in tandem or Ab2 directly. The binding signals of Ab2 to LILRB2 under different conditions were detected respectively. Finally, the relative binding signals of Ab2 in tandem were calculated by normalization. High relative binding signals represent low competition between Ab2 and Ab1 for binding antigen. Likewise, low relative association signals represent high competition between Ab2 and Ab1.
With B1, the “relative binding signal of Ab2 in tandem” value is -3%.

Consider B2, for which the “relative binding signal of Ab2 in tandem” value came to 17%.

Turning to B3, the “relative binding signal of Ab2 in tandem” value was found to be 100%.

A further assay has as its target T1, Human LILRB2 stably expressed on EL4 …. Briefly: Competitive FACS: EL4/LILRB2 cells preincubated with 10 ug/mL antibody, then HLA-A2 complex added; inhibition of the ligand's binding to the cells [panel HLA-A2].
Protocol: as §1
B1: the “Inhibition (%)” value worked out at 100%.

Consider B2, for which the “Inhibition (%)” value is 99%.

Take B3: the “Inhibition (%)” value was 100%.

In the next assay the target is T3, Human LILRB3 ECD recombinant protein …. Briefly: ELISA: plate coated with LILRB3 ECD recombinant protein [continued) G].
Consider B1, for which the binding result was “no binding (tested: 0.5 ug/mL)”.

B2: the binding result was “no binding (tested: 0.5 ug/mL)”.

As to B3, the binding result is listed as “no binding (tested: 0.5 ug/mL)”.

The next assay has as its target T5, 6×His-tagged human LILRB2 ECD …. Kind of assay: Octet tandem binning on captured 6×His LILRB2 ECD; competitor (Ab1) 043c.
Protocol: as §3
With B1, the “relative binding signal of Ab2 in tandem” value came to 96%.

In the case of B2, the “relative binding signal of Ab2 in tandem” value worked out at 100%.

B3: the “relative binding signal of Ab2 in tandem” value amounted to 3%.

The target in the next assay is T2, Human LILRA1 ECD recombinant protein …. Kind of assay: ELISA: plate coated with LILRA1 ECD recombinant protein, antibody at 0.5 ug/mL (method of example 3.2.1); mean OD450 printed over the bar.
Protocol: as §2
As for B1, the OD450 was 0.16.

As to B2, the OD450 stood at 0.15.

As to B3, the OD450 stood at 0.15.

In a further assay the target is T10, Human LILRB5 ECD recombinant protein with 6×His-tag (human, UniProt O75023 24-458, limits assumed).
T10 construct: Bought protein; not shown: 6×His-tag
T10 sequence (O75023 24-458 limits assumed): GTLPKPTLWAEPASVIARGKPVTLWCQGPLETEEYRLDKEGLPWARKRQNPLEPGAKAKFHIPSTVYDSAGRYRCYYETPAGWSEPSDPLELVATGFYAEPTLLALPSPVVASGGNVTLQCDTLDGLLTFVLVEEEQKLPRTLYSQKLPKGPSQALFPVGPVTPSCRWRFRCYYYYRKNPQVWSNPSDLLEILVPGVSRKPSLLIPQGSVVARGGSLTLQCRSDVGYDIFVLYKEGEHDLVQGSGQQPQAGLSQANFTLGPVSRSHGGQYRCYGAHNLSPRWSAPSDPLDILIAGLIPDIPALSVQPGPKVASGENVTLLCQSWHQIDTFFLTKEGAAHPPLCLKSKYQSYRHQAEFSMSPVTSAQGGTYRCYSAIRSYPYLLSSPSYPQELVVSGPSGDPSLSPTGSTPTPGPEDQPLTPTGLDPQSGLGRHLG
Kind of assay: ELISA: plate coated with LILRB5 ECD recombinant protein, antibody at 0.5 ug/mL (method of example 3.2.1); mean OD450 printed over the bar [continued) I].
With B1, the OD450 is 0.09.

On to B2, for which the OD450 came out at 0.07.

B3: the OD450 stood at 0.08.
